Results from article PMC8230527, “Structural and Biochemical Characterization of a Dye-Decolorizing Peroxidase from Dictyostelium discoideum” (International Journal of Molecular Sciences, 2021).

Experiments:
[1] = molecular target: Dictyostelium discoideum dye-decolorizing peroxidase DyPA (Dictyostelium discoideum); assay: AUC; sedimentation velocity, 50,000 rpm, 20 °C, 50 mM Tris-HCl pH 8.0, 150 mM NaCl; 20 µM apo-DyPA with a heme saturation of only 7%
[2] = molecular target: Dictyostelium discoideum dye-decolorizing peroxidase DyPA (Dictyostelium discoideum); assay: AUC; sedimentation velocity, 50,000 rpm, 20 °C, 50 mM Tris-HCl pH 8.0, 150 mM NaCl; heme-reconstituted DyPA at 2.1, 6.3, 18.9 and 33.6 µM (monomer concentrations); dimer, no monomer-dimer equilibrium seen in this range

stoichiometry N [1]: 2 | percent of the protein sedimenting as the dimer species [2]: 90% | stoichiometry N [2]: 2
Substance: Dictyostelium discoideum dye-decolorizing peroxidase DyPA (enzyme)
